Laboratory results taken from the supplement of paper PMC12764529.
± gives the half width of the 95% confidence interval.

Experiment: folding stability dG unfold from chymotrypsin proteolysis; higher = more stable
Summary of the method: (§1)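 Sequencing followed digestion of designed mini-proteins with trypsin and chymotrypsin, each at 11 concentrations in threefold dilutions together with a no-protease condition. The mini-proteins were under 80 residues, had no cysteine, sat in a PA-tagged cDNA display construct, and were kept only if AlphaFold2 dimer inter-PAE was above 15. From the counts, Bayesian fitting gave K50, and unfolding free energy was derived against a sequence-predicted unfolded-state K50 and a shared folded-state K50, per protease or combined.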

Sequence | folding stability dG unfold [kcal/mol]
SAGGSAGGSAGGKKVKITVVLEFDGVLLVAEAEIEFDENGKIVEIKVKVELFPAPEEGEESAGGSAGGSAGG [r7_135_TrROS_Hall] | 2.39 ± 0.18
SAGGSAEIPPGAKLEIDEMSFDPGNGRIEMMFKIEDPDGEPLWQIRVSWEFNPENGKMKLDIEIMPSAGGSA [r15_1028_TrROS] | 3.8 ± 0.12
SAGGSAGGSAKPKLHIHILTAGPFEELAELLEELAKRIFPPELEIDIHIHYIPKELLHPELGSAGGSAGGSA [r18_498_TrMRF] | 2.51 ± 0.041
SASMEAALAKVEEITAEPSWELVGVSPEGVFTIRNPETGTEIVIEIKVTSDGKGYKVTIPSKTVVPAPESAG [r14_20_JUSTAS] | 1.3 ± 0.13
SAGGSAGGSAGGKKLTFKAEIVSEEEIEINGKKYRIFKVKVTLPDGSKLTLTVIVELDDLSAGGSAGGSAGG [r7_846_TrROS_Hall] | 4.22 ± 0.056
SAGGMPYRLDAVRVEVRPRPDGGPLLVVELTYPDGSRETAVFDSPEDLLRALENSPRFSEITLLPSVSAGGS [r16_757_TrMRF] | 0.16 ± 0.088
SAKGTLELTFPTTKVTVEVEKVDPVNNKVYARAVFPNGFVVDAVFDPKTGKVYVEVKEVKPTKDGGYSLSAG [r14_466_TrMRF] | 1.46 ± 0.11
SAGGSARALLEELEVLSEEDRGDFTVVTVKGPAAEYPAEEVRAALEALGIAVEYDPATGEVTVYVASAGGSA [r15_599_JUSTAS] | 0.964 ± 0.084
SAGGSAGGSKKKKKVKYKIKVINPEKPEVKEIEIEAENEEEAKKLAEELAKKYPGVKVEIEKTSAGGSAGGS [r12_601_TrROS_Hall] | 2.95 ± 0.064
SAGGMHLVIPFDSPEEALEAAKELKKEFEEKGYTVKVYYFPETGDIHVLVEMKTDGKTKYLNVTVPFPSAGG [r13_641_TrMRF] | 2.05 ± 0.036
SAGGSAGGSAGKVIIIKVPKKDMTPEEVEKLAKELKEKFPDAKITVIEVKKDGYIIIKIDSAGGSAGGSAGG [r11_365_TrROS_Hall] | 2.73 ± 0.079
SAGGSAGGSPPGWTIMMFEITISITVPRVEVYDPKDGKPRAEVPYVRVSIPIPIFIIFPAGAFSAGGSAGGS [r12_600_TrROS] | 4.24 ± 0.12
SAGGSAMPPNMKKVPISIHIPAENYKRDPDGKWKFTADELARHIQRGFRQRFGMPIKKIDVHVHPPSAGGSA [r15_415_TrROS] | 0.00448 ± 0.31
SAGGSAGGEATEGTLIVGGKPVRVTVERTPEGGRIATVELPNGVTVVARLNPVTRGAEILEVVESAGGSAGG [r6_290_TrMRF] | 1.45 ± 0.086
SAGGASTVEYEITLPLDPSGSVDPDTIRAAAEAIAAADPDFVDHRIEEITITRLPDGTVRFTVTISVPSAGG [r13_462_JUSTAS] | 2.46 ± 0.049
SAGGSAGGSAGGPEVEVFYERGPDGPLKVVVVVRNPDTPEVTVLVADLEPEKALEFLEALSAGGSAGGSAGG [r7_105_TrMRF] | 1.86 ± 0.084
SAGGSAGGSAGMTLLVKNEDGYLVKIEITEVEVDENGELHLKVKVEVLPPLEEVEEVEEESAGGSAGGSAGG [r17_536_TrROS_Hall] | 1.79 ± 0.054
SAGGSAGGIKELLEALGFEVVDVEPTDNKFMIMIRNPEEGRVVVIEIEWDGPPKIEIHPMPPNASAGGSAGG [r6_195_TrROS] | 2.11 ± 0.04
SAGGMISKKLNPPSKEEAEKIAEEIKKKNPNYKVTMTYDPKTGTYTITITPLPKPPPDPKNFKEIIKSAGGS [r16_674_JUSTAS] | 1.74 ± 0.15
SAAAENGEITISVEVELDPETNTLTIKRVEITVNGKLIATATLTITLPPPPPEPEETVYVHPDDPEALKSAG [r14_571_TrROS_Hall] | 1.97 ± 0.038
SAGGSAGMIEVEIRPTPEGGYEVLVKFYGPGGVEVEEKKYRFGSEEEAKKFLEELAKKNGYSVKIRSAGGSA [r15_242_JUSTAS] | 3.74 ± 0.027

Experiment: folding stability dG unfold (combined trypsin and chymotrypsin); higher = more stable
Summary of the method: as §1

Sequence | folding stability dG unfold [kcal/mol]
SAGGSAGGSAGGPYEKAVEAAKALGSEDKPITIKLPNGTTVTLKPSELPSLPYEDPIVLLSAGGSAGGSAGG [r7_863_JUSTAS] | 0.353 ± 0.17
SAGGSAGGSELPDGPALVVLPINSKPVVALAKVNSTGKIEVYIPNPGKKFTFDLDQAEVYPVLSAGGSAGGS [r12_782_TrMRF] | 0.35 ± 0.061
SAGGSAGGSPGKPYVEVEFTFIAFFPDGWLWVMTMKIEIPPDNNEIKPDIEMERIPLPPGQFLSAGGSAGGS [r12_811_TrROS] | 2.7 ± 0.08
SPRTTVSFEVYMPPDQLKQNSIEDIADRVRDHFPGYKIKGIDIKFEPYPDPENGRPWVRVTVMIRVEPPESA [r9_1189_TrROS] | 2.96 ± 0.14
SAGGSAGGSAGGSPNWKWVEMEITFNVPPGAKITIPNGIKLTVPPGDPVTIKIYIAVPPSAGGSAGGSAGGS [r4_232_TrROS] | 2.47 ± 0.31
SAGGSAGGSAPKPKTKTIMFRFPGTPEDALDIAKEIANYFNDRGLEIEVERHPNGYIMITFPSAGGSAGGSA [r18_262_TrROS] | 2.61 ± 0.065
SAGGSAGGSAGGGSFVLTRHTRTGLRRRVYFDPETGELTVELETGTESRTTLSPLSPDLSAGGSAGGSAGGS [r10_376_TrMRF] | 0.489 ± 0.058
SAPPDDWKPVTIPILIPFDSVEDAKEWVIELANELAKKHGWRINIDVDIEPVPNRYYIKIPITIYVPKKSAG [r14_626_TrROS] | 2.47 ± 0.31
SAGGSAGGSAGMTIQIEILTTGDLEETKKKLEEELKKKYPSSLKVIIKLSHVPASEAPSDLGSAGGSAGGSA [r18_498_JUSTAS] | 1.13 ± 0.14
SAGKYIMHPIKAGAEIKITIPPEGYRIKIGMYYPNGGKMEEHEVPIKPGKTLEFKIPDPNFFVMIEPEPSAG [r5_797_TrROS] | 1.3 ± 0.26
